Measured values as given in a protein production outcome set (Wang et al. 2014).

Experiment: label from the status in PepcDB records
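Also: failed if final PepcDB status was selected cloned or expressed and not failed if soluble or beyond.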

Row | Sequence | protein production
1 | MADPRTDNRNRKIPDAQVDAIKVPPHSLEAEQSVIGGLLLDNERWDTVSEHVMTQDFYSRPHRLIFDGVKSILEAGKPLDLITLSEYLEQREQLEDVGGFAYLADLAKNTPSAANINAYAEIVAERALVRNLIGVANEIADAGYDPQGRNAEDLLDLAESKVFAIAEARTSENEGPKNVDSILERTLERIELLYKTPQDGVTGVNTGFTDLNKKTAGLQGSDLIIVAARPSMGKTTFAMNLCENAAMEQDKPVLIFSLEMPAEQIMMRMLASLSRVDQTKIRTGQLDDEDWARISSTMGILMEKKNMYIDDSSGLTPTEVRSRARRIAREHGGLSLIMVDYLQLMRVPALTDNRTLEIAEISRSLKALAKELNVPVVALSQLNRSLEQRADKRPVNSDLRESGSIEQDADLIMFIYRDEVYHPDSPLKGTAEIIIGKQRNGPIGSVRLTFQGHYSRFDNYAGPAFDDE | not failed
2 | SLDTEKDCIKAVAAKDGITVIKVKSSNKLLSWHFMRKLFEIFEFYQEPVDMVATSEVGVSLTIDNDKNLPDIVRALSDIGDVTVDKDMVIICIVGDMEWDNVGFEARIINALKGVPVRMISYGGSNYNVSVLVKAEDKKKALIALSNKLFNSRATKA | not failed
3 | MATPVVTKTAWKLQEIVAHASNVSSLVLGKASGRLLATGGDDCRVNLWSINKPNCIMSLTGHTSPVESVRLNTPEELIVAGSQSGSIRVWDLEAAKILRTLMGHKANICSLDFHPYGEFVASGSQDTNIKLWDIRRKGCVFRYRGHSQAVRCLRFSPDGKWLASAADDHTVKLWDLTAGKMMSEFPGHTGPVNVVEFHPNEYLLASGSSDRTIRFWDLEKFQVVSCIEGEPGPVRSVLFNPDGCCLYSGCQDSLRVYGWEPERCFDVVLVNWGKVADLAICNDQLIGVAFSQSNVSSYVVDLTRVTRTGTVTQDPVQASQPQTQQTPNPGVSLRRIYERPSTTCSKPQRVKHNSESERRSPSSEDDKDERESRAEIQNAEDYNEIFQPKNSISRTPPRRSEPFPAPPEDDIATAKEASKPSPAMDVQLPVPSQEVPARPSVMTSTPAPKGEPVIIPATRNEPIGLKASDFLPAVKVPQQAELVDEDAMSQIRKGHDTMCVVLTSRHKNLDTVRAVWTTGDIKTSVDSAVAINDLSVVVDLLNIVNQKASLWKLDLCTTVLPQIEKLLQSKYESYVQTGCTSLKLILQRFLPLITDILAAPPSVGVDISREERLHKCRLCFKQLKSISGLVKSRSGLSGRHGSAFRELHLLMASLD | failed
4 | MPLPKSLKYGDTIGIYSPSSPVTYTSPKRFERAKSYLLQKGFHILEGSLTGRYDYYRSGSIQERAKELNALIRNPNVSCIMSTIGGMNSNSLLPYIDYDAFQNNPKIMIGYSDATALLLGIYAKTGIPTFYGPALVPSFGEFEPFVDDTYKYFLETLLHDQALPYNIKQPLFWSDEFINWEEKTKEKELRPNNWISVTNGQATGRVIGGNLNTIQGIWGSPYMPCIQEGDILFIEDSSKDAATIERSFSFLKINGVFDKVSGIILGKHEQFDDCGTNRKPYEILLEVLQNQRIPLLADFDCCHTHPMITMPIGVQVKMDATNKTIHILEKWKI | not failed
5 | MNNVSEERVAEMIWDAVSEGATLKDVHGIPQDMMDGLYAHAYEFYNQGRLDEAETFFRFLCIYDFYNPDYTMGLAAVCQLKKQFQKACDLYAVAFTLLKNDYRPVFFTGQCQLLMRKAAKARQCFELVNERTEDESLRAKALVYLEALKTAETEQHSEQEKELEHHHHHH | not failed
6 | MADPTSSERLLVTAALPYANGPIHIGHLAGAYLPADLFVRYQRLKGEDVAFICGSDEMGVAILMRAIREDRTPEDIIDTYHPQIRDNFERFGMSFDYYGRTSSETHTETTQDFFRVLDENGGFDLKTDEQLYDPEAEMFLADRFVIGTCPVCGFEEAYGDQCEQCGSSLSPTELENPQSTLTDATPEFKETTHWYLPLGELQPQLEEWIGSHPEWKNNVVGQIQSWFDEGLKGRAITRDVLWGVPVPDDVAERHGLEAEGKVIYVWFDAPIGYISATKEWAAEQGEPDAWTDYWQDEDTRLVHFIGKDNIVFHCLMFPSMLMEHGDYVLPDNVPANEFLNLEGEKLSTSRGWAVWLHEYLDDFADERHAPDLLRYALATTLPETKDADFSWEGFQQRVNGELANVFGNFVHRTLTFAQRYFDGTVPPLEDPSEADRVMLDRMAEVPDTVGAAYEEHRTRDAVFETMALARRGNKYFNDTEPWHTHESDPQACANTIHVSLQVCAALSILFEPVLPSAAATLRERIGLENVRTSTPDDDPAGAVGWEDAGAPLLPAGHPIPSGPDPEPLFQKIDDDTIEAQIEKLRDRAAERDTDPSSTTDMDYEALSDNISFDDFTQLDLRAGTVTTAEPVPDADKLLRLEVDLGFEERQILAGVAEQMAPDDVVGLEVVVVANMAPKEMFGFESQGMVLMAEEPDGTFVPVTTEAEDGSVVR | failed
7 | MNLLIENIRGISYALVSPTLSLMLIVIAIIFYFKNRKIAFMQKLMLGRSIQSPLEMTLLQILIGILGGLIASLLLSILGVTFENSSLIDVILTVSVFSVLYKNRFLKFPYIAALLGVIGVLVSKNTEYFGRGFSFSINLTSIIVLIGVFSIVEGILAMIDGDKGYLPIFTQKDGKLVGGFGFKRFWALPLCLLVVLGANSGNSIINEVKDLPQWLPFFNGDKARALMSVAALGTLAAYGATSYEGTTFTQSKRSKTITSGLINIAYGIVVIILAYLLKESLVFTIALIILIPLLYELRIRMELKLESLREPLYFSNDDEICILDVLPNSIAYKKGLRSGDKIVKINEEIPKNEKEVFMAIKRNFYGLDLEIRKNNGNIEKHTITGEDRGKQFGIVLVPKGISFDKEIDEFLEKLKKASKDEEVKNK | failed
8 | MKDVLAEYASRIVSAEEAVKHIKNGERVALSHAAGVPQSCVDALVQQADLFQNVEIYHMLCLGEGKYMAPEMAPHFRHITNFVGGNSRKAVEENRADFIPVFFYEVPSMIRKDILHIDVAIVQLSMPDENGYCSFGVSCDYSKPAAESAHLVIGEINRQMPYVHGDNLIHISKLDYIVMADYPIYSLAKPKIGEVEEAIGRNCAELIEDGATLQLGIGAIPDAALLFLKDKKDLGIHTEMFSDGVVELVRSGVITGKKKTLHPGKMVATFLMGSEDVYHFIDKNPDVELYPVDYVNDPRVIAQNDNMVSINSCIEIDLMGQVVSECIGSKQFSGTGGQVDYVRGAAWSKNGKSIMAIPSTAKNGTASRIVPIIAEGAAVTTLRNEVDYVVTEYGIAQLKGKSLRQRAEALIAIAHPDFREELTKHLRKRFG | not failed
9 | MTIYTLSHGSLKLDVSDQGGVIEGFWRDTTPLLRPGKKSGVATDASCFPLVPFANRVSGNRFVWQGREYQLQPNVEWDAHYLHGDGWLGEWQCVSHSDDSLCLVYEHRSGVYHYRVSQAFHLTADTLTVTLSVTNQGAETLPFGTGWHPYFPLSPQTRIQAQASGYWLEREQWLAGEFCEQLPQELDFNQPAPLPRQWVNNGFAGWNGQARIEQPQEGYAIIMETTPPAPCYFIFVSDPAFDKGYAFDFFCLEPMSHAPDDHHRPEGGDLIALAPGESTTSEMSLRVEWL | not failed
10 | MPERIIREDVKIGDGMMIDSDSQDDCVTKAVRTVEQKLTTEEHEIVMVYDYVSGSSGSSSTPSFTLTPYSPISYESDQEDYEDPPISPYISEAVVHSPDSTFALLWEGTSPILHFAADMRADAIPSVGDGTTSGIHIPYCFIYGEDGRYPQDCRF | failed
11 | MNNKIYFTPGPSELYPTVRQHMITALDEKIGVISHRSKKFEEVYKTASDNLKTLLELPSNYEVLFLASATEIWERIIQNCVEKKSFHCVNGSFSKRFYEFAGELGREAYKEEAAFGKGFYPADITVPADAEIICLTHNETSSGVSMPVEDINTFRDKNKDALIFVDAVSSLPYPKFDWTKIDSVFFSVQKCFGLPAGLGVWILNDRVIEKSKALLAKRKSIGTYHTIPSMLEKARVNQTPETPNAMNIFLLGKVTGDMLQISADGIRKQTEEKAALINTYIESSKVFSFGVEDAKLRSMTTIVANTTMLPGEINKILEPFDMAVGAGYGSKKETQIRIANFPAHSLEQVHKLVQTLKEKIG | not failed
12 | MNLFAPPALFRHFHRMAWLAALFTASTILFGSFVRLSDAGMSCPDWPTCYGRVTWPQTSDEANTHVASKIRPLESHKAWREQVHRFLAGALGVEVLVLSLLAVRRRRMGIAQVVSAAVLVALSIPLYMSGWHATAFGMAITGEAILLLAALRWSNIDLARAAVLTLAVVIFQALLGMWTVTLLLKPIVVMGHLLGGMLMFSLLVWMAWRATHLPITLADASRLKWLLRLGVAVLGLQIALGGWVSANYAALACGGGSWSADNFPRCVSQWWPPHDFREGFTLWRGIGVDYEGGVLDGAARIAIQMAHRLWAIATALYLWWLAWRLSRSPGMRVWAGALALLVAVQVTLGMLNVKLALPLEVSLMHNGGAVALLFVLVSLLARLRAPE | failed
13 | MSLGQQQVTLFWSGAITGPTSDAGAPYGAAVEDYCKWANERKLVPGVVFNCVVRDDQYNNANTQRFFEEAVDRFKIPVFLSYATGANLQLKPLIQELRIPTIPASMHIELIDPPNNDYIFLPTTSYSEQVVALLEYIAREKKGAKVALVVHPSPFGRAPVEDARKAARELGLQIVDVQEVGSGNLDNTALLKRFEQAGVEYVVHQNVAGPVANILKDAKRLGLKMRHLGAHYTGGPDLIALAGDAAEGFLWATSFYMAHEDTPGIRLQKEIGRKYGRPENFIESVNYTNGMLAAAIAVEAIRRAQERFKRITNETVYQAIVGMNGPNAFKPGFAVSTKQGVEIDFTKSEHTGAEGLRILEAKGGRFVPVTEPFTSALFRKVHYGEGHHHHHH | not failed
14 | MALTPDQMPDRAEVVFTCNGKAVGKMRNELDVAMVKPFEERFALATDEGAFHGGDASAPPPLALFIAGLTGCVMTQIRAFAKRLKVTVTDLDVECRVVWDWAKAGPVYETGPKSFEIDIILHSPDPIEAQQALIEAAKKGCFLEQTLGQANTIRHRLKVGDTFIDA | not failed
15 | MINQRMIHMKNTKLLLAIATSAALLTGCQNTHGIDTNMAISSGLNAYKAATLSDADAKAIANQGCAEMDSGNQVASKSSKYGKRLAKIAKALGNNINGTPVNYKVYMTSDVNAWAMANGCVRVYSGLMDMMNDNEIEGVLGHELGHVALGHSLAEMKASYAIVAARDAISATSGVASQLSRSQLGDIAEGAINAKYSRDKESEADDFSFDLLKKRGISTQGLVGSFETLASLDGGRTQSMFDSHPPSTERAQHIRDRIASGKLEHHHHHH | failed
16 | MIIQKIKQFFVGSERTIKAKKNIIASLLVKMLSIIISLLLVPVTLNYLNSYEYGVWLTLSSILVWINYFDIGLGNGLRNRLTEALAIGDYEKGRIYISTTFAILLILMLTIYLLYAFLQHFISWKSILNISTNHAFTDLNYLVLIVFAFFCISFVLKFVGIIYLAKQQPVINDLFGAIANLMSLIVIYILTLVTDGNLTYVAIVFSSAPAVVYLLAYPFTFYYKYPNLAPKISAINFHYAKGLLGLGFQFFIIQVSCLLMFATSNILIAQLCGPEEVTPYNIAYKYFSVITMGFTIVITPFWSAVTDALIKEDFLWIRKGIINMLKVWLFFLLCSLVMLFVASWVYSFWVNMSIPFYLSLLLFVYISIFNWNNMFAYFVNGMGKIRLQLYCSVISGGIFIPLAILLGQLWGLVGIIGSMCFSLLVSAVLMPIQLKLLLAKSATGIWNK | failed
17 | LEEFKNSSKLVAAAEKERLDKHLGIPCNNCKQFPIEGKCYKCTECIEYHLCQECFDSYCHLSHTFTFREKRNQKWRSLEKRADEV | not failed
18 | MAGAYLHIPFCEHICYYCDFNKVFIEGQPVDDYVAMLLKEMRMVMAEHPEEKIQTVYVGGGTPSTLTPTQLATLCQGIHDILHFDQGEFTFEANPNDLLTTEKLQVLHDYGVNRLSIGVQSFNDDVLRRIGRIHRAKDVYTAIANARQVGFDNISIDLIFRLPDQSRDDFLTSLQKALALDLPHYSTYSLILERKTIFYNLMRQGKLRLPTQDVEADMYQDAIDLMEAHGRHQYEISNFAKDGYQCEHNLLYWRNDKYFGFGAGAFGYLGRDRYHNYGPIKQYLTPLHADHLPVLEHHLVPQSEQIEEEMFLGLRTMQGVSEARFYDRYHMTVDAIYGETVPELVSQGLVVRQDGYIRLTNKGKFLGNEVFQRFLIDEPLVLEHHHHHH | not failed
